The target of assay [1] is monomeric Red Fluorescent Protein 1 (mRFP1). Kind of assay: dual-colour FCCS in living HeLa cells, proteins expressed separately from pIRES-EGFP-mRFP1 (negative control, 0% interaction).
Assay [2] deals with JunΔdimΔDNA-mRFP1 (human) (UniProt P05412). Briefly: dual-colour FCCS in living HeLa cells; references: 13% for no interaction, 45% for 100% interaction.
UniProt P05412, sequence (P05412 other isoform, or with tags, fused parts or gaps mutant): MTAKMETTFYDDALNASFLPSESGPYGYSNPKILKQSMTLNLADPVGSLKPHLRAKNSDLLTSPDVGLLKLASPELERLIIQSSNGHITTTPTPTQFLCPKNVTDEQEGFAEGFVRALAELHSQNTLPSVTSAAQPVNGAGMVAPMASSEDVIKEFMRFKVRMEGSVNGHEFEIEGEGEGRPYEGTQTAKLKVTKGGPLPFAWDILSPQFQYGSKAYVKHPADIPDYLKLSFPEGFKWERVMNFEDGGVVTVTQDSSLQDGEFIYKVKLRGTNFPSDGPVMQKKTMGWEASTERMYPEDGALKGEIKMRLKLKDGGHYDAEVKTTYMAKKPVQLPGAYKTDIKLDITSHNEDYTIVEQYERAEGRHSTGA

Substance “Enhanced Green Fluorescent Protein (EGFP)” returned a cross-correlation amplitude (percent of the autocorrelation signal) in assay [1] of 13%.

As for “FosΔdimΔDNA-EGFP (from UniProt P01100 1-138)”, in assay [2], the cross-correlation amplitude is 18%.

Values taken from patent EP1645881A1.
